From patent US20230181718A1

Target: Endo-H treated SApNPs
Assay: BLI, Octet RED96; Endo-H treated against wildtype SApNPs

VRC01 (antibody)
fold higher binding than the wildtype SApNPs: 2 to 3.5 fold
